Source: paper PMC8932525 (The Journal of Cell Biology, 2022)

Tests used:
[1] = molecular target: nuclear pore complexes (NPCs) in endoKap-depleted digitonin-permeabilized HeLa cells (human (endogenous in HeLa)); assay: permeabilized cell assay, confocal fluorescence microscopy
[2] = molecular target: CRM1 (exportin 1/chromosomal maintenance 1) (UniProt O14980 1-1071); assay: SPR
importin-5 (Imp5) = molecular target: T1, importin-5 (Imp5) (UniProt O00410 1-1097); assay: SPR
T1 sequence (looked up): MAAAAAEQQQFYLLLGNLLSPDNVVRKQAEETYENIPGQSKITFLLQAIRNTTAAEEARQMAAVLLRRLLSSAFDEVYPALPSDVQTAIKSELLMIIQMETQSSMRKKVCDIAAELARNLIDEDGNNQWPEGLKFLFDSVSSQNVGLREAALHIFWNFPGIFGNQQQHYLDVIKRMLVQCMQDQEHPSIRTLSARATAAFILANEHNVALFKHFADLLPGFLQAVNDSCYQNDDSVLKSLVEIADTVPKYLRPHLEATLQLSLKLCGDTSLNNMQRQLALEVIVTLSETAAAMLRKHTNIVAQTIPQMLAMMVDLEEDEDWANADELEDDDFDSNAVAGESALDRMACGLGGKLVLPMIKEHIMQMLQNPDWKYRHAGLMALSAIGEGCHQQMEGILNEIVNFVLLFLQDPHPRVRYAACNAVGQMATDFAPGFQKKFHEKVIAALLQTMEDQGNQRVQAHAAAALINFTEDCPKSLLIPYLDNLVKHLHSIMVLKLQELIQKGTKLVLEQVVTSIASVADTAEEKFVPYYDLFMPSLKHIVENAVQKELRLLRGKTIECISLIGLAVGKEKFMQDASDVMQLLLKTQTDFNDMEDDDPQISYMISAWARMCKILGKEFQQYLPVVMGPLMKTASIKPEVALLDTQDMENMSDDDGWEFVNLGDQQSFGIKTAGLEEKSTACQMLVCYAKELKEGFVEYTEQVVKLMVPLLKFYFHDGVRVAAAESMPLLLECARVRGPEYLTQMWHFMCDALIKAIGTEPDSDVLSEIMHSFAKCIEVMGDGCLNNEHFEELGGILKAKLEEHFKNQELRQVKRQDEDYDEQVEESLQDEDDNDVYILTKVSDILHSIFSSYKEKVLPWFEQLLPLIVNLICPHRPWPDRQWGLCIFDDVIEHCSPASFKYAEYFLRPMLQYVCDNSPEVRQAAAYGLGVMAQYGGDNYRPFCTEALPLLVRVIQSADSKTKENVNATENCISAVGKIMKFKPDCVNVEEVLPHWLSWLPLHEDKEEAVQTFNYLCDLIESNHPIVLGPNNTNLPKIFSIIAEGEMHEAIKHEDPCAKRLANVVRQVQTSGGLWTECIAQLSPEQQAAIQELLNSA

CRM1 (exportin 1/chromosomal maintenance 1), sequence (O14980 whole entry): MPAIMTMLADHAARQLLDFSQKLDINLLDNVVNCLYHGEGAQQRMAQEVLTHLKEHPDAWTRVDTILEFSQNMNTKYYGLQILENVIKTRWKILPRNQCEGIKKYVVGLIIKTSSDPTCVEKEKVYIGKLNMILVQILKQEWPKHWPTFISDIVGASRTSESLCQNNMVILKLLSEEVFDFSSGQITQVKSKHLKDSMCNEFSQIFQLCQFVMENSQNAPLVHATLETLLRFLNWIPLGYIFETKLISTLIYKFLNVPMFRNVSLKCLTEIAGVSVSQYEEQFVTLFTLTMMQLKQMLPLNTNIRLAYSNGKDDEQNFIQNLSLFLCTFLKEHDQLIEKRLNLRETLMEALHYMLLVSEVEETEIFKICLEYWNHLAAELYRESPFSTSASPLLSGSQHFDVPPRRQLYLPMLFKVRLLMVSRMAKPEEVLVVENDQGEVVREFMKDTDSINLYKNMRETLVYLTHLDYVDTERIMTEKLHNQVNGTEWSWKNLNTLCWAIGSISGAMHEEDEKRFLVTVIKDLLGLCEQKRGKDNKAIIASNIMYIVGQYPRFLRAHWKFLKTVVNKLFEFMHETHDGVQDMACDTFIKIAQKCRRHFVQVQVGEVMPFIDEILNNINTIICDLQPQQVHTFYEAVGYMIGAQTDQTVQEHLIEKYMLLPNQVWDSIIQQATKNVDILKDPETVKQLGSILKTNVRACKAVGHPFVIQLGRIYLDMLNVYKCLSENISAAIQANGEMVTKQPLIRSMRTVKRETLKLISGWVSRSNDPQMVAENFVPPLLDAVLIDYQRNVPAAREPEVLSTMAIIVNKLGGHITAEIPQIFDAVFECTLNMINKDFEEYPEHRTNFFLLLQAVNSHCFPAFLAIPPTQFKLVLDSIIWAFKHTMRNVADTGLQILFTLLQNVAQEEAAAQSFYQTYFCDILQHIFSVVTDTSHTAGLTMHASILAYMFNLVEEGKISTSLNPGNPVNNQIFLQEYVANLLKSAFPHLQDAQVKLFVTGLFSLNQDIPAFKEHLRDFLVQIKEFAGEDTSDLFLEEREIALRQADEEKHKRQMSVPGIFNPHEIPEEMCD

## Kapβ1–Alexa Fluor 488 (from UniProt Q14974 1-876) (natural protein)
[1]
  Kd: 3100 nM
  relative occupancy with 10 µM exoImp5: 72%

## CRM1–Alexa Fluor 647 (from UniProt O14980 1-1071) (natural protein)
[1]
  K (D,NPC) in the presence of 10 µM exoKapβ1: 2.8 µM
  Kd: 500 nM
  reduction of relative occupancy from the standalone value, with 10 µM exoKapβ1: 51%
  relative occupancy with 10 µM exoImp5: 59%

B1: cNup214 (cysteine-tagged FG domain of human Nup214) (domain or fragment, UniProt P35658 1809-2090, looked up)
chain: SPGFGQGGSVFGGTSAATTTAATSGFSFCQASGFGSSNTGSVFGQAASTGGIVFGQQSSSSSGSVFGSGNTGRGGGFFSGLGGKPSQDAANKNPFSSASGGFGSTATSNTSNLFGNSGAKTFGGFASSSFGEQKPTGTFSSGGGSVASQGFGFSSPNKTGGFGAAPVFGSPPTFGGSPGFGGVPAFGSAPAFTSPLGSTGGKVFGEGTAAASAGGFGFGSSSNTTSFGTLASQNAPTFGSLSQQTSGFGTQSSGFSGFGSGTGGFSFGSNNSSVQGFGGWRS
[2]
  Kd: 110 ± 20 nM
importin-5 (Imp5)
  binding result: binds

B2: cNup62 (cysteine-tagged FG domain of human Nup62) (domain or fragment, UniProt P37198 1-240, looked up)
chain: MSGFNFGGTGAPTGGFTFGTAKTATTTPATGFSFSTSGTGGFNFGAPFQPATSTPSTGLFSLATQTPATQTTGFTFGTATLASGGTGFSLGIGASKLNLSNTAATPAMANPSGFGLGSSNLTNAISSTVTSSQGTAPTGFVFGPSTTSVAPATTSGGFSFTGGSTAQPSGFNIGSAGNSAQPTAPATLPFTPATPAATTAGATQPAAPTPTATITSTGPSLFASIATAPTSSATTGLSLC
[2]
  Kd: 2860 ± 380 nM
importin-5 (Imp5)
  binding result: binds

B3: cNup153 (cysteine-tagged FG domain of human Nup153) (domain or fragment, UniProt P49790 874-1475, looked up)
chain: CESAKPGTKSGFKGFDTSSSSSNSAASSSFKFGVSSSSSGPSQTLTSTGNFKFGDQGGFKIGVSSDSGSINPMSEGFKFSKPIGDFKFGVSSESKPEEVKKDSKNDNFKFGLSSGLSNPVSLTPFQFGVSNLGQEEKKEELPKSSSAGFSFGTGVINSTPAPANTIVTSENKSSFNLGTIETKSASVAPFTCKTSEAKKEEMPATKGGFSFGNVEPASLPSASVFVLGRTEEKQQEPVTSTSLVFGKKADNEEPKCQPVFSFGNSEQTKDENSSKSTFSFSMTKPSEKESEQPAKATFAFGAQTSTTADQGAAKPVFSFLNNSSSSSSTPATSAGGGIFGSSTSSSNPPVATFVFGQSSNPVSSSAFGNTAESSTSQSLLFSQDSKLATTSSTGTAVTPFVFGPGASSNNTTTSGFGFGATTTSSSAGSSFVFGTGPSAPSASPAFGANQTPTFGQSQGASQPNPPGFGSISSSTALFPTGSQPAPPTFGTVSSSSQPPVFGQQPSQSAFGSGTTPNSSSAFQFGSSTTNFNFTNNSPSGVFTFGANSSTPAASAQPSGSGGFPFNQSPAAFTVGSNGKNVFSSSGTSFSGRKIKTAVRRRK
importin-5 (Imp5)
  binding result: binds

B4: cNup98 (cysteine-tagged FG domain of human Nup98) (domain or fragment, UniProt P52948 1-498, looked up)
chain: MFNKSFGTPFGGGTGGFGTTSTFGQNTGFGTTSGGAFGTSAFGSSNNTGGLFGNSQTKPGGLFGTSSFSQPATSTSTGFGFGTSTGTANTLFGTASTGTSLFSSQNNAFAQNKPTGFGNFGTSTSSGGLFGTTNTTSNPFGSTSGSLFGPSSFTAAPTGTTIKFNPPTGTDTMVKAGVSTNISTKHQCITAMKEYESKSLEELRLEDYQANRKGPQNQVGAGTTTGLFGSSPATSSATGLFSSSTTNSGFAYGQNKTAFGTSTTGFGTNPGGLFGQQNQQTTSLFSKPFGQATTTQNTGFSFGNTSTIGQPSTNTMGLFGVTQASQPGGLFGTATNTSTGTAFGTGTGLFGQTNTGFGAVGSTLFGNNKLTTFGSSTTSAPSFGTTSGGLFGNKPTLTLGTNTNTSNFGFGTNTSGNSIFGSKPAPGTLGTGLGAGFGTALGAGQASLFGNNQPKIGGPLGTGAFGAPGFNTTTATLGFGAPQAPVALTDPNASAAQQ
importin-5 (Imp5)
  binding result: binds
